The results in this text go back to US20120114557A1.

Assay [1] has as its target rat collagen type I (rat) (UniProt P02454). As to the kind of experiment: dried collagen assay, 5 uM peptide.
In assay [2] the target is human collagen type I (human) (UniProt P02452). As to the kind of experiment: dried collagen assay, 5 uM peptide.

Bridge positions count the residues as written; N and C are the ends. Square brackets hold non-standard residues; d marks the D form. Ends that are not written are not given here. NMeA = CN[C@@H](C)C(=O)O; Sar = CNCC(=O)O

human collagen type I (human), sequence (P02452 162-1218 limits assumed, chain 1 of 2): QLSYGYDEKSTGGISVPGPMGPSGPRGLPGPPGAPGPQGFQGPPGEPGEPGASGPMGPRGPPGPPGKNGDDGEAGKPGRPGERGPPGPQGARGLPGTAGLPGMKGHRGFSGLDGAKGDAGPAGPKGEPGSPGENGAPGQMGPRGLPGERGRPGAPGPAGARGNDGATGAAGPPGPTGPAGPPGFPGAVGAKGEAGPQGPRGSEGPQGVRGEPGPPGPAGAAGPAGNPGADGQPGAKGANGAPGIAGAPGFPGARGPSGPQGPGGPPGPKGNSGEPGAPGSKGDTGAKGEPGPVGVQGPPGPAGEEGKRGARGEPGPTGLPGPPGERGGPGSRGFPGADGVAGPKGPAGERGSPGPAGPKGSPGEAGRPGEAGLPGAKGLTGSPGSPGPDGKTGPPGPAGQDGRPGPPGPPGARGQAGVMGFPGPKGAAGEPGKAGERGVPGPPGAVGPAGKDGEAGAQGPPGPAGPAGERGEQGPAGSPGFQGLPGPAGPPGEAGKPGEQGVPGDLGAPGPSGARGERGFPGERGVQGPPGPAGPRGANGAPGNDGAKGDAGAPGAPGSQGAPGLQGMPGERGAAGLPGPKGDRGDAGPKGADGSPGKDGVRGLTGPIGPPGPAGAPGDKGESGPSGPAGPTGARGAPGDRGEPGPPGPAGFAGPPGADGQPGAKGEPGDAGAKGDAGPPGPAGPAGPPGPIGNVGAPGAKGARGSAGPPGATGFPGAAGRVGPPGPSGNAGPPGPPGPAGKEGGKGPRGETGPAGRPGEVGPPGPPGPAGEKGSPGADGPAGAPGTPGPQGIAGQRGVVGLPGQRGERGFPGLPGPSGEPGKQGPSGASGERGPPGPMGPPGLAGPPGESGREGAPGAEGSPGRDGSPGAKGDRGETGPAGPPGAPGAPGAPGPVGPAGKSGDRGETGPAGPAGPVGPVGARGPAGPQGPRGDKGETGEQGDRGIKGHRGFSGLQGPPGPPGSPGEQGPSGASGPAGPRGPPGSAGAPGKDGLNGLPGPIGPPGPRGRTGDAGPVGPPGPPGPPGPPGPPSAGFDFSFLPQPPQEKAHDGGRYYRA
human collagen type I (human), sequence (P08123 80-1119 limits assumed, chain 2 of 2, further chain): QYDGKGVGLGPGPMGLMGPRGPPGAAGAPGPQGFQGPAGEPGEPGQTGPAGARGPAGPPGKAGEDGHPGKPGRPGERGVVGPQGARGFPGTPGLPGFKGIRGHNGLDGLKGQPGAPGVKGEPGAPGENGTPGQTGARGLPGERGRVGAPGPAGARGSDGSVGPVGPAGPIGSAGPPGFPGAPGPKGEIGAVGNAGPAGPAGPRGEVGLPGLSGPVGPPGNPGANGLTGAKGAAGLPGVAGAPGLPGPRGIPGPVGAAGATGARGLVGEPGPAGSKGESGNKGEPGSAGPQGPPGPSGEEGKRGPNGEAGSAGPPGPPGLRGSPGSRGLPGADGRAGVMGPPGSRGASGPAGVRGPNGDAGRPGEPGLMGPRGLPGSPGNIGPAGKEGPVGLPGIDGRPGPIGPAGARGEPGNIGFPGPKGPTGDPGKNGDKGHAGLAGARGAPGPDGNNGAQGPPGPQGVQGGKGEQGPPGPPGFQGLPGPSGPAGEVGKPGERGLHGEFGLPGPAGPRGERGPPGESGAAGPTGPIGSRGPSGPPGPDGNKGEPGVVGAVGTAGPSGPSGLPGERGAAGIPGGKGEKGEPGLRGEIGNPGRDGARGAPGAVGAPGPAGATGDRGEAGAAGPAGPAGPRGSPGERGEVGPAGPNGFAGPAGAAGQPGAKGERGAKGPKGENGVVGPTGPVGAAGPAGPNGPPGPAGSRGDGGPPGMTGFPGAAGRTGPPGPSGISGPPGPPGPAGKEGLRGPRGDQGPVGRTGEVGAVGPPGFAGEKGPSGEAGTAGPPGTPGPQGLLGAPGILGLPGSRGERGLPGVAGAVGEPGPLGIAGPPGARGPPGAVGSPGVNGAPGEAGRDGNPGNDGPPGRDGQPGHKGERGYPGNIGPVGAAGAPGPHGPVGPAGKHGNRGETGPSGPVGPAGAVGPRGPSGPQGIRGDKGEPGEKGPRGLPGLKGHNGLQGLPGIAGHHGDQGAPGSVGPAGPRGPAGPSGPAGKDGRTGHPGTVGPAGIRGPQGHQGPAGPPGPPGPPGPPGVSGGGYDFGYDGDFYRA
rat collagen type I (rat), sequence (P02454 152-1207, chain 1 of 2): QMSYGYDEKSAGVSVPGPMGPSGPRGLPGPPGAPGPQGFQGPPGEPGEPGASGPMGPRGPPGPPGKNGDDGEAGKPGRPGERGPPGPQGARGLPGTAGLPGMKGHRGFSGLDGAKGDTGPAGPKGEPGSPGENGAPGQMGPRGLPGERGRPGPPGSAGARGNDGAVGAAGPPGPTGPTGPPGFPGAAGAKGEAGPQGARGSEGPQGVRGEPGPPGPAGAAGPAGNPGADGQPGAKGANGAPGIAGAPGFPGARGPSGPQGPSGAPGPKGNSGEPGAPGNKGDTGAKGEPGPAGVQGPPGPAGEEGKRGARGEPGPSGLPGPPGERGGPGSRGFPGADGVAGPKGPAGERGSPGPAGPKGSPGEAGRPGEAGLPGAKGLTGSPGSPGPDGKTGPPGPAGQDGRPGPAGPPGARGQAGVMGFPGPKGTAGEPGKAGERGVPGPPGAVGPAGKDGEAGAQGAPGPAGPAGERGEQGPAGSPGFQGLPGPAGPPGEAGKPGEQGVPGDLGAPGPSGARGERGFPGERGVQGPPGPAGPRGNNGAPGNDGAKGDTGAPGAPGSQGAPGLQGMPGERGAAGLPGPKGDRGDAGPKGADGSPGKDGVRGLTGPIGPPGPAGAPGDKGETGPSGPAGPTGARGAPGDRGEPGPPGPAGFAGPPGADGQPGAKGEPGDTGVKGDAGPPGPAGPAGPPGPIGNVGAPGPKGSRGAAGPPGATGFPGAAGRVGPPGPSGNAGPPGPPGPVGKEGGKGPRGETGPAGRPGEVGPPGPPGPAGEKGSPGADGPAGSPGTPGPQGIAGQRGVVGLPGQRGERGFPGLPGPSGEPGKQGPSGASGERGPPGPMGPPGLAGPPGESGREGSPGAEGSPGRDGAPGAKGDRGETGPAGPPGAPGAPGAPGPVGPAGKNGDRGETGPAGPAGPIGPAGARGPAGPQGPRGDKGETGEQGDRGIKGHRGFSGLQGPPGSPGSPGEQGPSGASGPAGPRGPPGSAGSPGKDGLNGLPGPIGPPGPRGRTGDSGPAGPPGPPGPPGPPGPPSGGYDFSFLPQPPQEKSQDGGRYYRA
rat collagen type I (rat), sequence (P02466 86-1125, chain 2 of 2, further chain): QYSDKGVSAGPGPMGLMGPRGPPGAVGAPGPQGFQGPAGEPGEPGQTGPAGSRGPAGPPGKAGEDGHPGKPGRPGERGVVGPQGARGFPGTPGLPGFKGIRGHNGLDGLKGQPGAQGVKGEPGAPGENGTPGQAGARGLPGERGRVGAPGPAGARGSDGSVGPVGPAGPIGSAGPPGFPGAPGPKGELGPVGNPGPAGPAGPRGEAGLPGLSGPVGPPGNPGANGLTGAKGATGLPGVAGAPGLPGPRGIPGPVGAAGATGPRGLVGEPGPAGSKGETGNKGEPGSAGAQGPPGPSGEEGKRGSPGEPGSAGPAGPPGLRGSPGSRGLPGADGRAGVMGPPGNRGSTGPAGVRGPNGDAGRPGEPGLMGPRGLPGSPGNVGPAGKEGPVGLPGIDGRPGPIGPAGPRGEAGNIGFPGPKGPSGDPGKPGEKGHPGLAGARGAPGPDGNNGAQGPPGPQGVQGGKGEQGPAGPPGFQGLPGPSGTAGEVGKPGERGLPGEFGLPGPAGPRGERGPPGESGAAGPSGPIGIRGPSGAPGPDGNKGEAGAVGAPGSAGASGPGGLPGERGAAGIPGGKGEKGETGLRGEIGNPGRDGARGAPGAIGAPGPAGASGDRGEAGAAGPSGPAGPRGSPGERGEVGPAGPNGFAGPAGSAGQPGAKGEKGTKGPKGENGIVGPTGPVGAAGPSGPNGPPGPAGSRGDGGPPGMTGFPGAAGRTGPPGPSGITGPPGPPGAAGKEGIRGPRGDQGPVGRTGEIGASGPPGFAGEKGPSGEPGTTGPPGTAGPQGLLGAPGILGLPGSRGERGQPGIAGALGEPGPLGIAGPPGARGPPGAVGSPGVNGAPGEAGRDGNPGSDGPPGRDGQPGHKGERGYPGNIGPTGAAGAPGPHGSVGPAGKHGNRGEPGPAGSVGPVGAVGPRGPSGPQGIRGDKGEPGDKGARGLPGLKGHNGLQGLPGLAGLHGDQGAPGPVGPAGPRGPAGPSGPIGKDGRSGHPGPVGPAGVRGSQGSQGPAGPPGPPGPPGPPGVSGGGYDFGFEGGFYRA

On to GQWTCSGDEYTW[dH]CNYE (disulfide 5-14 (inferred); not fully specified (C-terminus)) [SEQ ID NO: 174], for which the % Collagen Binding, Dried Rat in assay [1] is 0%. The molecule also yielded a % Collagen Binding, Dried Human in assay [2] of 5%.
In assay [1], YHACYQAGC[dW]IW (disulfide 4-9 (inferred)) [SEQ ID NO: 160] gave a % Collagen Binding, Dried Rat of 12%. This molecule registered a % Collagen Binding, Dried Human in assay [2] of 20%.
GQWTCSADEYTWHCNYE (disulfide 5-14 (inferred)) [SEQ ID NO: 142] returned a % Collagen Binding, Dried Rat in assay [1] of 6%.

B1: SEQ ID NO: 179 (peptide)
peptide: DWTCS[dA]DEYTWHCNYE
modifications: disulfide 4-13 (inferred); not fully specified (C-terminus); printed as D W T C S a D E Y T W H C N Y E
On to B1, for which the % Collagen Binding, Dried Rat in assay [1] came out at 75%. The % Collagen Binding, Dried Human in assay [2] came out at 81%.
Taken in the same sequence, the figures for YHACYQAGCW[dI]W (disulfide 4-9 (inferred)) [SEQ ID NO: 161] were 10% and 8%.
YH[dA]CYQAGCWIW (disulfide 4-9 (inferred)) [SEQ ID NO: 154] registered a % Collagen Binding, Dried Rat in assay [1] of 21%. The same molecule showed a % Collagen Binding, Dried Human in assay [2] of 24%.
In assay [1], YHACYQAGCWI[dW] (disulfide 4-9 (inferred)) [SEQ ID NO: 162] came in with a % Collagen Binding, Dried Rat of 14%. Further, the % Collagen Binding, Dried Human in assay [2] worked out at 18%.
YHACYQAGCWAW (disulfide 4-9 (inferred)) [SEQ ID NO: 137]: the % Collagen Binding, Dried Rat in assay [1] is 7%.
Y[dH]ACYQAGCWIW (disulfide 4-9 (inferred)) [SEQ ID NO: 153] displayed a % Collagen Binding, Dried Rat in assay [1] of 0%. The % Collagen Binding, Dried Human in assay [2] stood at 0%.
On to GQ[dW]TCSGDEYTWHCNYE (disulfide 5-14 (inferred)) [SEQ ID NO: 165], for which the % Collagen Binding, Dried Rat in assay [1] came to 4%. Further, the % Collagen Binding, Dried Human in assay [2] was determined as 2%.
For the molecule GQWTCSGDEY[dT]WHCNYE (disulfide 5-14 (inferred); not fully specified (C-terminus)) [SEQ ID NO: 172], the % Collagen Binding, Dried Rat in assay [1] was 8%. The same molecule had a % Collagen Binding, Dried Human in assay [2] of 9%.
The matching figures for YHACYQA[Sar]CWIW (disulfide 4-9 (inferred)) [SEQ ID NO: 104]: 19% and 12%.
In turn, GQWTCSGDE[dY]TWHCNYE (disulfide 5-14 (inferred); not fully specified (C-terminus)) [SEQ ID NO: 171] had a % Collagen Binding, Dried Rat in assay [1] of 6%. For the same molecule, the % Collagen Binding, Dried Human in assay [2] amounted to 13%.
The matching figures for YHAC[dY]QAGCWIW (disulfide 4-9 (inferred)) [SEQ ID NO: 156]: 48% and 38%.
The molecule YHACYQ[NMeA]GCWIW (disulfide 4-9 (inferred)) [SEQ ID NO: 105] gave a % Collagen Binding, Dried Rat in assay [1] of 23%. The molecule further had a % Collagen Binding, Dried Human in assay [2] of 9%.
Take GQWTCSG[dD]EYTWHCNYE (disulfide 5-14 (inferred); not fully specified (C-terminus)) [SEQ ID NO: 169]: the % Collagen Binding, Dried Rat in assay [1] came to 4%. For the same molecule, the % Collagen Binding, Dried Human in assay [2] turned out to be 11%.
In the case of YHACYQAGCYIW (disulfide 4-9 (inferred)) [SEQ ID NO: 107], the % Collagen Binding, Dried Rat in assay [1] came to 6%.
For GQWTCSGDEYTWHCN[dY]E (disulfide 5-14 (inferred); not fully specified (C-terminus)) [SEQ ID NO: 177], in assay [1], the % Collagen Binding, Dried Rat turned out to be 27%. The molecule further gave a % Collagen Binding, Dried Human in assay [2] of 30%.
In assay [1], YHACYQ[dA]GCWIW (disulfide 4-9 (inferred)) [SEQ ID NO: 158] returned a % Collagen Binding, Dried Rat of 66%. The molecule further returned a % Collagen Binding, Dried Human in assay [2] of 56%.
Taken in the same sequence, the figures for GQWTC[dS]GDEYTWHCNYE (disulfide 5-14 (inferred)) [SEQ ID NO: 168] were 2% and 3%.
Taken in the same sequence, the figures for YHACY[dQ]AGCWIW (disulfide 4-9 (inferred)) [SEQ ID NO: 157] were 35% and 37%.
Taken in the same sequence, the figures for GQWTCSGDEYTWHC[dN]YE (disulfide 5-14 (inferred); not fully specified (C-terminus)) [SEQ ID NO: 176] were 2% and 2%.
G[dQ]WTCSGDEYTWHCNYE (disulfide 5-14 (inferred)) [SEQ ID NO: 164] had a % Collagen Binding, Dried Rat in assay [1] of 31%. This molecule also displayed a % Collagen Binding, Dried Human in assay [2] of 46%.
Taken in the same sequence, the figures for GQWTCSGD[dE]YTWHCNYE (disulfide 5-14 (inferred); not fully specified (C-terminus)) [SEQ ID NO: 170] were 35% and 49%.
In assay [2], PMICHAPYVGKCNFL (disulfide 4-12 (inferred)) [SEQ ID NO: 12] yielded a Dried Human Collagen Binding of 7%.
In assay [1], GQWTCSGDEYT[dW]HCNYE (disulfide 5-14 (inferred); not fully specified (C-terminus)) [SEQ ID NO: 173] returned a % Collagen Binding, Dried Rat of 4%. Moreover, in assay [2], the % Collagen Binding, Dried Human turned out to be 5%.
With GQW[dT]CSGDEYTWHCNYE (disulfide 5-14 (inferred)) [SEQ ID NO: 166], the % Collagen Binding, Dried Rat in assay [1] turned out to be 3%. The molecule further showed a % Collagen Binding, Dried Human in assay [2] of 2%.
